test: yeast display, Sf9 membrane polyspecificity reagent, FACS + sequencing; frameworks hold sequencing errors
Method in brief: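 Synthetic nanobody libraries on Saccharomyces cerevisiae BJ5465 were galactose-induced for 36–48 hours, stained 1 hour at 4 °C with 10% biotinylated, detergent-solubilized Sf9 membrane reagent and enriched on streptavidin microbeads. FACS then separated cells into low and high (top ~1%) gates by anti-HA (expression) and streptavidin (reagent binding) fluorescence. Genes were colony-PCR amplified, MiSeq 2 × 250 sequenced and CDR-length filtered. A clone's polyreactivity label is that of its gate of origin.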

Sequence | polyreactivity (PSR sort gate)
QVQLVESGVGLVQAGGSLRLSCAASGSTFRYNAMVWYRQAPGKERELVAAITGSGDRTFYADSVKGRFTISRDNAKNTVYLQMNSLKPVDTAVYYCAARSRYPFSYGYYYWGQGTQVSVSS | high polyreactivity
QVQLVESGGGLVQAGGSLRLSCAASGFIFGQYAMGWYRQAPGKERELVAAISWSGGRTNYADSVKGRFTISRDNAKNTVYLQMNSLKPEDTAVYYCAARKGKYPQYTYGYWGQGTQVTVSS | high polyreactivity
QVHLVESGGCLVQAGGSLRLSCAASGYIIGINAMACYRQAPRKESELVPAISRSGGSTYYAESVKGRFTISRDNAKNTVYLQMNSLKPEDTAVYYCASDILRFYSDTYGTEYWGQGTQVTVSS | high polyreactivity
QVQLVESGGGLVQAGGSLRLSCAASGSTFSYYPMGWYRQAPGKERELVATISKRGGTTSYADSVKGRFTISRDNAKNTVYLQMISLKPEDTAVYYCAARYSKVHYAYDYWGQGTQVTVSS | high polyreactivity
QVQLVESGGGIVQAGVSLRLSCAASGITFIRYAMGWYRQAPGKERELVAAISSSGGSTYYADSVKGRFTISRDNAKNTVYLQMISLKPEDTAVYYCAARIPDRQDGYGYWGQGTQVTVSS | high polyreactivity
QDQLVESRGGLVQAGGSLRLRCAASGSIFIGYAMGWYRQAPGKQRELVAAISGSGSSTYYADSVKGRFTISRDNAKNNDYLQMNILKPEDTAVYYCAAAPRFRGYDYCGQGTQVTVSS | high polyreactivity
QVQLVESGGGLVQAGGSLRLSCASSGRIFFTNAMGWYRQAPGKERELVAAIRSSGGRTYYADSVKGRFTISRDNAKNTVYLQMNSLKPEDTAVYYCNVVDGRHISHYNYWGQGTQVTVSS | high polyreactivity
QVQLVESGGGLVQAGGSLRLSCAASGFTFYRYAMGWYRPAPGKERELVAAITSGGSTYYADSVKGRCTISRDNAKNTVFLQMISLKPEDTAVYSCAAQKARVSPGAWTRYVYWGQGTQVTVSS | high polyreactivity
QVQLVESGGGLVQAGGSLRLSCAASGSIFYGYAMGWYRQAPGKERELVAAISSSGGTTYYADSVKGRFTISRDNAKNTVYLQMNSLKPEDTAVYYCAALGGYYYRTRYNGDYWGHGTQVTVSS | high polyreactivity
QVQLVESGGGLVQAGGSLRLSCAASGITFNVYTMGWYRQAPGKERELVAAITSSGGSTYYADSVKGRFTISRDNAKNTVYLQMNSLKPEDTAVYYCAARGWTRYSPSSRWYDYWGQGTQVTVSS | high polyreactivity
QVQLVESGGGLVQAGGSLRLSCAASGRIFSAYAMGWYRQAPGKERELVAAISRSGGRTYYADSVKGRFTISRDNAKNTVYLQMNSLKPEDTAVYYCAAARFAIVRGDYWGQGTQVTVSS | high polyreactivity
PVQLVESGGGLVQEGGSLRLICAASGRTFYGYAMGCYRPAPGKEREFVAAINSSGGTTYYADSVKGRCTISRDNAKNTVYRAMNSVKPEDTAFSYCAAVYSRIRRWPGYNAYDYWGHGTQVTVSS | high polyreactivity
HVQLQESGGGLVQAGGSMRLTCAASGQKSSYYSMGWNRQAPGKEREFVATIAVGGTTNYADSVKGRFTISRDNAKNTVYLQMNSLKPEDTAVCFCAANSTQYTWFDYWGQGTQVPVSS | low polyreactivity
QVQLVESGGGLVQAGGSLRLSCAASGRIFYGYTMGWYRQAPGKERELVAAISWSGGSTYYADSVKGRFTISRDNAKNTVYLQLNSLKPEDTAVYYCNAVTLWYIYGWDYYYWGQGTQVTVSS | high polyreactivity
QVQLVESGGGKVQAGGSLRLSCAASGLTFWSYAMGWYRQAPGKERELVAAISGTGGRTYYADSVKGRFTITRDNAKNTVYLQMTSLKPEDTAVYYCTARTWRWYFTFDYWGQGTQVNVSS | high polyreactivity
QVQLVESGGGLVQAGGSLRLSCAASGSTFWNYAMGWYRQAPGKERELVASIDSSDGRTYYADSVKGRFTSSRDNAKNTVFLQMTRQKPEDTAVDYCAKDAYAVELRPYSKLSSRADGYWGHGTQVTVSS | low polyreactivity
QVQLVESGGGLVQAGGSLRLSCAASGNTFSGNAMGWYRQAPGKQRELVATINSGGGSTNYADSVTGRFSISRDNAKNTVYLQMNSLKPEDTAGYYCAASAYTWRGIDSSYLTVTYDYWGQGTQVTVSS | low polyreactivity
QVQLVESGGGLVQAGGSLRLISAASGSIFERYAMGWYRQAPGKERELVAAITWTGGSTYYADSVKGRFTISRDNAKNTVYLQMNSLKPEDTAVYYCAADYLYPLWGWYDYWGQGTQVTVSS | low polyreactivity
QVQLVESGGGLVQAGGSLRLSCAASGRIFWSNAMGWYRQAPGKERELVAAIRNTCSTNYADSVKGRFTISRDNAKNTVYLQMISLKPEDTGVYYCAADRASYFTYAYGYWGQGTQVTVSS | high polyreactivity
QVQLVDSGGGLVQAGGSLRLSCAASGITFYDYTMGWYRQAPGKERELVAAITSSGVSTYYADSVKGRFTISRDNAKNTVYLQMNSLKPEDTAVYYCAADLYEDPNGEDDYWGQGTQVTVSS | low polyreactivity
QDQLVESGGGLVQAGGSLRLSCAASGRTFWRYALGWYRQAPGKEREMVAAISSGGITYYADSVKGRFTISRDNAKNTVYLQMNSLKPEDTAVYYCARYGPYESSYHYDYWGQGTQVTVSS | high polyreactivity
QVQLVESGGGLDQAGGSLRLSCAASGFAFSYYAMGWYRQAPGKEREFVASIDWSGGSTYYADSVKGRFTISRDNAKNTVYLQMNSLKPEDTAVYYCAAELDYFPGYDYWGQGTQVTVSS | low polyreactivity
QVQLVESGGGLVQAGGSLRLSCAASGRIFRYYAMGWYRQAPGKERELVAAITQRGGSTYADSVKGRFTISRDNAKNTVYLQMNSLKPEDTAVYYCAYRGSFLYDYWGQGTQVTVSS | low polyreactivity
QVQLVESGGGLVQAGGSLRLSCAASGYIFVIYAMGWYSQAPGEERELVAAISWSGDTTYYADSVKGRFTISRDNAKNTVYLQMNSLQPEDTAVFYCNAETAYYQVDYCGQGTQVTVSS | low polyreactivity
QVQLVESGGGLVQAGGSLRLSCAASGITFYYYAMGRYRQAPGKERELVAAIDTDGSTYYADSVKGRFTISRDNAKNTVYLQMNSLKPVDTAVYYCNAVGSRRSIPRVYYWGQGTQVNVSS | high polyreactivity
QVQLVESGGGLVQAGGSLRLSCADSGFTFAANTMGWYRQAPGKARELVADISGRGDRTSYADSVKGRFTISRDNAKNTVYLQMNSLKPEDTAVYYCAVDIYYYSNVHYYYWGQGTQVTVSS | low polyreactivity
QVQLGESGGGLVQAGGSLRLSCAASGRTFYSYAMGWYRHAPWKERELVAAISASGGRTYYADSVKGRFTISRDNEKNTVYLQMNSLKPEDTAVYYCAAYPWYRMWGQGTQVTVSS | high polyreactivity
QVQLVESGGGLVQAGGSLRLSCAASGRTFYYARGWYRQAPGKERELVAAITSSSSTYSADSVKGRFTISRDNAKNTVYLQMNSLKPEDTAVYYCNAADDPYGSPSYGYDYWGQGTQVTVSS | low polyreactivity
QVQLVESGGGLVQAGGSLRLSCAASGSISLYAMGWYRQAPGKERELVAAITKSGGSTYYADSVKGRFTISRDNAKNTVYLQMNSLKPEDTAVYYCNRGGGERKYNYWGQGTQVTGSS | high polyreactivity
QGQLVESGGGLVQAGGSLRLTCAASGFSFFDYAMGWYRQAPWKERELVAAISWDGDNTYYADSVKGRFTISRDNAKYTVYLQMNSLKPDDSAVYYCNADYENYEQFFDYWGQGTQVTVSS | high polyreactivity

Reference: the nanobody polyreactivity screen of Harvey et al. (2022)
